{"source": "paper PMC7094256", "about": "(Febs Letters, 2005)", "binders": {"B1": {"name": "GST-tagged human heterogeneous nuclear ribonucleoprotein A1 (natural protein)", "chain": "MSKSESPKEPEQLRKLFIGGLSFETTDESLRSHFEQWGTLTDCVVMRDPNTKRSRGFGFVTYATVEEVDAAMNARPHKVDGRVVEPKRAVSREDSQRPGAHLTVKKIFVGGIKEDTEEHHLRDYFEQYGKIEVIEIMTDRGSGKKRGFAFVTFDDHDSVDKIVIQKYHTVNGHNCEVRKALSKQEMASASSSQRGRSGSGNFGGGRGGGFGGNDNFGRGGNFSGRGGFGGSRGGGGYGGSGDGYNGFGNDGSNFGGGGSYNDFGNYNNQSSNFGPMKGGNFGGRSSGPYGGGGQYFAKPRNQGGYGGSSSSSSYGSGRRF"}}, "key": {"[1]": {"biological_target": "B1", "test": "SPR"}, "[2]": {"biological_target": "His-tagged nucleocapsid protein of SARS coronavirus (SARS coronavirus, UniProt P59595 1-422)", "sequence (P59595 whole entry)": "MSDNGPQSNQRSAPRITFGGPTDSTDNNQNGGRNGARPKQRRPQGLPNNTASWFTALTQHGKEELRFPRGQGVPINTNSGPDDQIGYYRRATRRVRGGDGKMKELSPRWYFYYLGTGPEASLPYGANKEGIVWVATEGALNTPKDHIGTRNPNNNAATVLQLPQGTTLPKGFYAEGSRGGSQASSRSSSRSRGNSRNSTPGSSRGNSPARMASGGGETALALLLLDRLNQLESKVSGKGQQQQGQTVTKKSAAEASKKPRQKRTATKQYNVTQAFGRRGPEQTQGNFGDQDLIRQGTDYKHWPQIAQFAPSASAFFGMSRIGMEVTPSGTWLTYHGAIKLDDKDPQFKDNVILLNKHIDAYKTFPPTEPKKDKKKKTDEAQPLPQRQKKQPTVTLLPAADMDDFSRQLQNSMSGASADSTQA", "test": "SPR"}}}
{"binder": "ASSRSSSRSRGNSRN", "note": "[synthesized peptide ASSRSSSRSRGNSRN (aa 183–197 of SARS_N)]", "values": [{"measurement": "Kd", "setting": "[1]", "value": "148 ± 12", "unit": "µM"}]}
{"binder": "B1", "values": [{"measurement": "Kd", "setting": "[2]", "value": "0.35 ± 0.02", "unit": "µM"}, {"measurement": "koff", "setting": "[2]", "value": 0.00206, "unit": "s⁻¹"}, {"measurement": "kon", "setting": "[2]", "value": 5830, "unit": "M⁻¹ s⁻¹"}]}
